# Measurements: PMC11150392, “Structure and mechanism of the K^+/H^+ exchanger KefC” (Nature Communications, 2024)
# B1: KefC WT*-GFP fusion [Escherichia coli] / itself (parent)
# chain: MDSHTLIQALIYLGSAALIVPIAVRLGLGSVLGYLIAGCIIGPWGLRLVTDAESILHFAEIGVVLMLFIIGLELDPQRLWKLRAAVFGCGALQMVICGGLLGLFCMLLGLRWQVAELIGMTLALSSTAIAMQAMNERNLMVTQMGRSAFAVLLFQDIAAIPLVAMIPLLATSSASTTMGAFALSALKVAGALVLVVLLGRYVTRPALRFVARSGLREVFSAVALFLVFGFGLLLEEVGLSMAMGAFLAGVLLASSEYRHALESDIEPFKGLLLGLFFIGVGMSIDFGTLLENPLRIVILLLGFLIIKIAMLWLIARPLQVPNKQRRWFAVLLGQGSEFAFVVFGAAQMANVLEPEWAKSLTLAVALSMAATPILLVILNRLEQSSTEEAREADEIDEEQPRVIIAGFGRFGQITGRLLLSSGVKMVVLDHDPDHIETLRKFGMKVFYGDATRMDLLESAGAAKAEVLINAIDDPQTNLQLTEMVKEHFPHLQIIARARDVDHYIRLRQAGVEKPERETFEGALKTGRLALESLGLGPYEARERADVFRRFNIQMVEEMAM
# Variants of: B1
# Assay: FSEC of DDM solubilized membranes after heating
# Design: unit not given here
# Conditions: with itself; 10 mins at 60 °C; 1 mM AMP; read off a plot
row,Variant,screen value
1,MDSHTLIQALIYLGSAALIVPIAVRLGLGSVLGYLIAGCIIGPWGLRLVTDAESILHFAEIGVVLMLFIIGLELDPQRLWKLRAAVFGCGALQMVICGGLLGLFCMLLGLRWQVAELIGMTLALSSTAIAMQAMNERNLMVTQMGASAFAVLLFQDIAAIPLVAMIPLLATSSASTTMGAFALSALKVAGALVLVVLLGRYVTRPALRFVARSGLREVFSAVALFLVFGFGLLLEEVGLSMAMGAFLAGVLLASSEYRHALESDIEPFKGLLLGLFFIGVGMSIDFGTLLENPLRIVILLLGFLIIKIAMLWLIARPLQVPNKQRRWFAVLLGQGSEFAFVVFGAAQMANVLEPEWAKSLTLAVALSMAATPILLVILNRLEQSSTEEAREADEIDEEQPRVIIAGFGRFGQITGRLLLSSGVKMVVLDHDPDHIETLRKFGMKVFYGDATRMDLLESAGAAKAEVLINAIDDPQTNLQLTEMVKEHFPHLQIIARARDVDHYIRLRQAGVEKPERETFEGALKTGRLALESLGLGPYEARERADVFRRFNIQMVEEMAM [chain 1 R146A],86
2,MDSHTLIQALIYLGSAALIVPIAVRLGLGSVLGYLIAGCIIGPWGLRLVTDAESILHFAEIGVVLMLFIIGLELDPQRLWKLRAAVFGCGALQMVICGGLLGLFCMLLGLRWQVAELIGMTLALSSTAIAMQAMAERNLMVTQMGRSAFAVLLFQDIAAIPLVAMIPLLATSSASTTMGAFALSALKVAGALVLVVLLGRYVTRPALRFVARSGLREVFSAVALFLVFGFGLLLEEVGLSMAMGAFLAGVLLASSEYRHALESDIEPFKGLLLGLFFIGVGMSIDFGTLLENPLRIVILLLGFLIIKIAMLWLIARPLQVPNKQRRWFAVLLGQGSEFAFVVFGAAQMANVLEPEWAKSLTLAVALSMAATPILLVILNRLEQSSTEEAREADEIDEEQPRVIIAGFGRFGQITGRLLLSSGVKMVVLDHDPDHIETLRKFGMKVFYGDATRMDLLESAGAAKAEVLINAIDDPQTNLQLTEMVKEHFPHLQIIARARDVDHYIRLRQAGVEKPERETFEGALKTGRLALESLGLGPYEARERADVFRRFNIQMVEEMAM [chain 1 N135A],89
3,MDSHTLIQALIYLGSAALIVPIAVRLGLGSVLGYLIAGCIIGPWGLRLVTDAESILHFAEIGVVLMLFIIGLELDPQRLWKLRAAVFGCGALQMVICGGLLGLFCMLLGLRWQVAELIGMTLALSSTAIAMQAMNERNLMVTQMGRSAFAVLLFQDIAAIPLVAMIPLLATSSASTTMGAFALSALKVAGALVLVVLLGRYVTRPALRFVARSGLREVFSAVALFLVFGFGLLLEEVGLSMAMGAFLAGVLLASSEYRHALESDIEPFKGLLLGLFFIGVGMSIDFGTLLENPLRIVILLLGFLIIKIAMLWLIARPLQVPNKQRRWFAVLLGQGSEFAFVVFGAAQMANVLEPEWAKSLTLAVALSMAATPILLVILNRLEQSSTEEAREADEIDEEQPAVIIAGFGRFGQITGRLLLSSGVKMVVLDHDPDHIETLRKFGMKVFYGDATRMDLLESAGAAKAEVLINAIDDPQTNLQLTEMVKEHFPHLQIIARARDVDHYIRLRQAGVEKPERETFEGALKTGRLALESLGLGPYEARERADVFRRFNIQMVEEMAM [chain 1 R401A],74
4,MDSHTLIQALIYLGSAALIVPIAVRLGLGSVLGYLIAGCIIGPWGLRLVTDAESILHFAEIGVVLMLFIIGLELDPQRLWKLRAAVFGCGALQMVICGGLLGLFCMLLGLRWQVAELIGMTLALSSTAIAMQAMNERNLMVTQMGRSAFAVLLFQDIAAIPLVAMIPLLATSSASTTMGAFALSALKVAGALVLVVLLGRYVTRPALRFVARSGLREVFSAVALFLVFGFGLLLEEVGLSMAMGAFLAGVLLASSEYRAALESDIEPFKGLLLGLFFIGVGMSIDFGTLLENPLRIVILLLGFLIIKIAMLWLIARPLQVPNKQRRWFAVLLGQGSEFAFVVFGAAQMANVLEPEWAKSLTLAVALSMAATPILLVILNRLEQSSTEEAREADEIDEEQPRVIIAGFGRFGQITGRLLLSSGVKMVVLDHDPDHIETLRKFGMKVFYGDATRMDLLESAGAAKAEVLINAIDDPQTNLQLTEMVKEHFPHLQIIARARDVDHYIRLRQAGVEKPERETFEGALKTGRLALESLGLGPYEARERADVFRRFNIQMVEEMAM [chain 1 H259A],6.5

# Results, then the variant that gave them:
row,screen value,Variant
1,5.5,MDSHTLIQALIYLGSAALIVPIAVRLGLGSVLGYLIAGCIIGPWGLRLVTDAESILHFAEIGVVLMLFIIGLELDPQRLWKLRAAVFGCGALQMVICGGLLGLFCMLLGLRWQVAELIGMTLALSSTAIAMQAMNERNLMVTQMGRSAFAVLLFQDIAAIPLVAMIPLLATSSASTTMGAFALSALKVAGALVLVVLLGRYVTRPALRFVARSGLREVFSAVALFLVFGFGLLLEEVGLSMAMGAFLAGVLLASSEYRHALESDIEPFKGLLLGLFFIGVGMSIDFGTLLENPLRIVILLLGFLIIKIAMLWLIARPLQVPNKQRRWFAVLLGQGSEFAFVVFGAAQMANVLEPEWAKSLTLAVALSMAATPILLVILNRLEQSSTEEAREADEIDEEQPRVIIAGFGRFGQITGRLLLSSGVKMVVLDHDPDHIETLRKFGMKVFYGDATRMDLLESAGAAKAAVLINAIDDPQTNLQLTEMVKEHFPHLQIIARARDVDHYIRLRQAGVEKPERETFEGALKTGRLALESLGLGPYEARERADVFRRFNIQMVEEMAM [chain 1 E465A]
2,10,MDSHTLIQALIYLGSAALIVPIAVRLGLGSVLGYLIAGCIIGPWGLRLVTDAESILHFAEIGVVLMLFIIGLELDPQRLWALRAAVFGCGALQMVICGGLLGLFCMLLGLRWQVAELIGMTLALSSTAIAMQAMNERNLMVTQMGRSAFAVLLFQDIAAIPLVAMIPLLATSSASTTMGAFALSALKVAGALVLVVLLGRYVTRPALRFVARSGLREVFSAVALFLVFGFGLLLEEVGLSMAMGAFLAGVLLASSEYRHALESDIEPFKGLLLGLFFIGVGMSIDFGTLLENPLRIVILLLGFLIIKIAMLWLIARPLQVPNKQRRWFAVLLGQGSEFAFVVFGAAQMANVLEPEWAKSLTLAVALSMAATPILLVILNRLEQSSTEEAREADEIDEEQPRVIIAGFGRFGQITGRLLLSSGVKMVVLDHDPDHIETLRKFGMKVFYGDATRMDLLESAGAAKAEVLINAIDDPQTNLQLTEMVKEHFPHLQIIARARDVDHYIRLRQAGVEKPERETFEGALKTGRLALESLGLGPYEARERADVFRRFNIQMVEEMAM [chain 1 K81A]
3,2.5,MDSHTLIQALIYLGSAALIVPIAVRLGLGSVLGYLIAGCIIGPWGLRLVTDAESILHFAEIGVVLMLFIIGLELDPQRLWKLRAAVFGCGALQMVICGGLLGLFCMLLGLRWQVAELIGMTLALSSTAIAMQAMNERNLMVTQMGRSAFAVLLFQDIAAIPLVAMIPLLATSSASTTMGAFALSALKVAGALVLVVLLGRYVTRPALRFVARSGLREVFSAVALFLVFGFGLLLEEVGLSMAMGAFLAGVLLASSEYRHALESDIEPFKGLLLGLFFIGVGMSIDFGTLLENPLRIVILLLGFLIIKIAMLWLIARPLQVPNKQRRWFAVLLGQGSEFAFVVFGAAQMANVLEPEWAKSLTLAVALSMAATPILLVILNRLEQSSTEEAREADEIDEEQPRVIIAGFGRFGQITGRLLLSSGVKMVVLDHDPDHIETLRKFGMKVFYGDATRMDLLESAGAAKAEVLINAIDDPQTNLQLTEMVKEHFPHLQIIARARDVDHYIRLRQAGVEKPERETFEGALKTGRLALESLGLGPYEAREAADVFRRFNIQMVEEMAM [chain 1 R543A]
